PMC2586299 (Developmental cell, 2008)

B2: VPS4A MIT domain (VPS4A residues 1−84) (domain or fragment, human, UniProt Q9UN37 1-84, looked up)
chain: MTTSTLQKAIDLVTKATEEDKAKNYEEALRLYQHAVEYFLHAIKYEAHSDKAKESIRAKCVQYLDRAEKLKDYLRSKEKHGKKP

Columns and labels:
[1] = biological target: B2; assay: NMR solution structure
[2] = biological target: T1, GST-CHMP6 (construct of the VPS4B measurement not stated) (human, UniProt Q96FZ7 1-201); assay: SPR
T1 sequence (looked up): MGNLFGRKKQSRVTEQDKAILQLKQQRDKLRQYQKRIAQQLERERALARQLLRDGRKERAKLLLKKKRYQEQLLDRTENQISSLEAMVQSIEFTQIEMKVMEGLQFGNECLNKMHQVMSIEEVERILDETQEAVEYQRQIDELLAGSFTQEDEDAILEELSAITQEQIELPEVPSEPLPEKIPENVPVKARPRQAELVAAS

[3] = biological target: T2, GST-CHMP6 without the final 20 residues (human, UniProt Q96FZ7 1-181); assay: SPR
T2 sequence (looked up): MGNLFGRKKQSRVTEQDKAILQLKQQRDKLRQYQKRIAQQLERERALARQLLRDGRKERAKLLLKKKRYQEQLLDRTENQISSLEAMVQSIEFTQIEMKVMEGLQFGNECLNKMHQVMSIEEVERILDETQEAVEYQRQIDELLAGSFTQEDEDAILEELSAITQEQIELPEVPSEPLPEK

[4] = biological target: T3, full length GST-CHMP6_(1−201) (human, UniProt Q96FZ7 1-201); assay: SPR
T3 sequence (looked up): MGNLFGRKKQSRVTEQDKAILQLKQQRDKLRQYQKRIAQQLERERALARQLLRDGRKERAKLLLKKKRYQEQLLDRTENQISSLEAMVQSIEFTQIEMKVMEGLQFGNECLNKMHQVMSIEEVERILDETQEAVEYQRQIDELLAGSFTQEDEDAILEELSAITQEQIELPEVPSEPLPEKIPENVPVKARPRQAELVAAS

CHMP6 MIM2 L178D (human) = assay: SPR
VPS4A MIT_(L64D) = biological target: T4, VPS4A MIT_(L64D) (human, UniProt Q9UN37 1-84, L64D); assay: SPR
T4 sequence (looked up): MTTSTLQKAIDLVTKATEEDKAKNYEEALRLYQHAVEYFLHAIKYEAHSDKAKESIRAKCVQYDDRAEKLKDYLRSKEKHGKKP

[5] = biological target: B2; assay: SPR

Binder: EQIELPEVPSEPLPEK (peptide, UniProt Q96FZ7 166-181, looked up) [CHMP6_(166−181) MIM2 peptide]
- binding result [1]: binds

B1: VPS4B MIT domain (domain or fragment, human, UniProt O75351 4-82, looked up)
chain: TSPNLQKAIDLASKAAQEDKAGNYEEALQLYQHAVQYFLHVVKYEAQGDKAKQSIRAKCTEYLDRAEKLKEYLKNKEKK
- Kd [2]: 786 ± 6 µM

Binder: B2
- Kd [3]: 23.2 ± 0.2 µM
- Kd [4]: 33 ± 7 µM
- Kd (CHMP6 MIM2 L178D (human)): 44.4 µM

Binder: QEQIELPEVPSEPLPEK (domain or fragment, human, UniProt Q96FZ7 165-181, looked up) [GST-CHMP6_(165−181) fragment]
- Kd (VPS4A MIT_(L64D)): 26.1 ± 0.8 µM
- Kd [5]: 5.8 ± 0.8 µM

Binder: LPEVPSEPLPEK (domain or fragment, human, UniProt Q96FZ7 170-181, looked up) [GST-CHMP6_(170−181) minimal fragment]
- Kd [5]: 8 ± 0.1 µM
